From paper PMC5959852 (2018) come the findings set out here.

In the assay the target is T1, Hif-1α CAD (Homo sapiens, UniProt Q16665).
T1 chain: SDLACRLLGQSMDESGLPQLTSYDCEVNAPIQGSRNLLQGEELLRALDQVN
In words: stopped-flow.

B1: CBP TAZ1 (protein)
chain: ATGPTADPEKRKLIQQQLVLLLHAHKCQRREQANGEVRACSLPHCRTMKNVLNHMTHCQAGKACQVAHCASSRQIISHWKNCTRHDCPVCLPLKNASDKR
With B1, binding was put at a Kd of 3.4 nM.
